Patent US10842793B2, “Inhibitors of the unconventional secretion of fibroblast growth factor 2 (FGF2) by tumor cells and uses thereof” (Universität Heidelberg, priority 2016, dated 2020)

Assays:
GST-NΔ173 Tec = target: T1, GST-NΔ173 Tec (Homo sapiens, UniProt P42680); test: Steady-state fluorescence polarization, FGF2 binding to GST-NΔ173 Tec; settings: fluorescein-labeled FGF2 50 nM, 1:1 stoichiometry, ± SEM; read-out: dissociation constant FGF2 / GST-NΔ173 Tec
T1 construct: made in house; host or cells: Tec: SF9 insect cells (baculovirus); FGF2: E. coli
Procedure: (§1) (A) Fluorescence polarization experiments were conducted using fluorescein-labeled FGF2. FGF2 (at a constant concentration of 50 nM) was incubated with increasing concentrations (0 to 20 μM) of the various Tec constructs indicated. Following incubation for 3 hours at room temperature, changes in polarization (ΔPolarization in mP) were recorded. A non-linear regression analysis was conducted (GST-NΔ173 Tec: black circles, n=8; SH1 kinase domain: green squares, n=5; GST-PH-TH: blue triangles, n=3; GST-SH3-SH2: red triangles, n=3; GST: orange rhombuses, n=5) and standard errors of the mean (SEM) were calculated. As detailed in Experimental Procedures, assuming a binding stoichiometry of 1:1, dissociation constants were calculated to be 1.434 μM±0.55 (SEM) for GST-NΔ173 Tec and 1.032 μM±0.29 (SEM) for the SH1 kinase domain of Tec. FIG. 2A discloses “His6” as SEQ ID NO: 2.
(§2) To determine binding affinity between Tec kinase and FGF2, steady-state fluorescence polarization was used. […] Based on the extinction coefficients of both His-tagged FGF2 and fluroscein-5-maleimide, the degree of labeling was determined to be 30%. […] Absolute protein concentrations were determined based upon the extinction coefficients calculated for each protein and measuring absorption at 280 nm using a NanoDrop 1000 spectrophotometer. […]

SH1 kinase domain of Tec = target: T2, SH1 kinase domain of Tec (Homo sapiens, UniProt P42680); test: Steady-state fluorescence polarization, FGF2 binding to SH1 kinase domain of Tec; settings: fluorescein-labeled FGF2 50 nM, 1:1 stoichiometry, ± SEM; read-out: dissociation constant FGF2 / SH1 kinase domain of Tec
T2 construct: yielding a homogenous preparation of the SH1 kinase domain; His (N, cleaved yes); made in house; host or cells: Tec SH1: SF9 insect cells (baculovirus); FGF2: E. coli
Procedure: as §1, §2

T1 sequence (P42680 174-631, stated change not applied): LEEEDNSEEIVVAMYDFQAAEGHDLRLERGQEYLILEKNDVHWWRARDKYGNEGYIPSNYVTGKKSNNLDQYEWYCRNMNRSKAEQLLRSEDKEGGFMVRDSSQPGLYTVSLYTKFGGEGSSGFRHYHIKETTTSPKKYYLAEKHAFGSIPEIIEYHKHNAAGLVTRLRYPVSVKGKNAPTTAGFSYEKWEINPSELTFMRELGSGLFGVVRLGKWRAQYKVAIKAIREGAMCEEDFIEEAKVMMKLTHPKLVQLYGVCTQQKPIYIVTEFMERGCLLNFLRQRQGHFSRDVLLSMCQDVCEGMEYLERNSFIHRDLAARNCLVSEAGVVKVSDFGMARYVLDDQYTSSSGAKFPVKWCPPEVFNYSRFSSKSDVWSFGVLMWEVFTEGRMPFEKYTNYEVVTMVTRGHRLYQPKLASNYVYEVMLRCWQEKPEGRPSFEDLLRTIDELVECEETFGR
T2 sequence (P42680 370-623 limits assumed): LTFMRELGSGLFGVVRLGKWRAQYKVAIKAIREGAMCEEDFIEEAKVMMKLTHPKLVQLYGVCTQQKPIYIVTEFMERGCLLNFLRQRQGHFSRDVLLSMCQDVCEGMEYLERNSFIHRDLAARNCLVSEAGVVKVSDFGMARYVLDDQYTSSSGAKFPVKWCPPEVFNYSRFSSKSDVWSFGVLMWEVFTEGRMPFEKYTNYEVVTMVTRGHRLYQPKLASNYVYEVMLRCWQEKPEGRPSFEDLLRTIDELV

Kd (GST-NΔ173 Tec): 1430 nM
Kd (SH1 kinase domain of Tec): 1030 nM
Substance: FGF2: recombinant fibroblast growth factor 2, His-tagged and fluorescein-labeled for fluorescence polarization
